Measured values: patent US20180334702A1
No end group written: not given here. *: point of attachment. aminohexane = linker joining biotin to the N-terminal residue; Biotin = O=C1N[C@H]2[C@H](CS[C@H]2CCCCC(=O)*)N1

B1: Polypeptide A (peptide)
peptide: {Biotin-aminohexane}-GMPWSPNPWWHGGGG
B2: Polypeptide D (peptide)
peptide: {Biotin-aminohexane}-GMFWSPNPWWRGGGG
B3: Polypeptide 15 (peptide)
peptide: {Biotin-aminohexane}-GMPWSWNPWWRGGGG
B4: Polypeptide 2 (peptide)
peptide: {Biotin-aminohexane}-AMPWSPNPWWRGGGG
B5: Polypeptide 8 (peptide)
peptide: {Biotin-aminohexane}-GMPWSPNAWWRGGGG
B6: Polypeptide 16 (peptide)
peptide: {Biotin-aminohexane}-GMPWSFNPWWRGGGG
B7: Polypeptide C (peptide)
peptide: {Biotin-aminohexane}-GMWWSPNPWWRGGGG
B8: Polypeptide E (peptide)
peptide: {Biotin-aminohexane}-GMYWSPNPWWRGGGG
B9: Polypeptide 4 (peptide)
peptide: {Biotin-aminohexane}-GMAWSPNPWWRGGGG
B10: Polypeptide 9 (peptide)
peptide: {Biotin-aminohexane}-GMPWSPNPAWRGGGG
B11: Polypeptide 6 (peptide)
peptide: {Biotin-aminohexane}-GMPWSANPWWRGGGG
B12: Polypeptide 10 (peptide)
peptide: {Biotin-aminohexane}-GMPWSPNPWARGGGG
B13: Polypeptide B (peptide)
peptide: {Biotin-aminohexane}-GMPWSPNPWWKGGGG
B14: Polypeptide 13 (peptide)
peptide: {Biotin-aminohexane}-GMPFSPNPWWRGGGG
B15: Polypeptide 12 (peptide)
peptide: {Biotin-aminohexane}-GMPWSPNPWWRAGGG
B16: Polypeptide 11 (peptide)
peptide: {Biotin-aminohexane}-GMPWSPNPWWAGGGG
B17: Polypeptide 7 (peptide)
peptide: {Biotin-aminohexane}-GMPWSPAPWWRGGGG
B18: Polypeptide 5 (peptide)
peptide: {Biotin-aminohexane}-GMPASPNPWWRGGGG
B19: Polypeptide 1 (peptide)
peptide: {Biotin-aminohexane}-GMPWSPNPWWRGGGG
B20: Polypeptide 14 (peptide)
peptide: {Biotin-aminohexane}-GMPYSPNPWWRGGGG
B21: Polypeptide F (peptide)
peptide: {Biotin-aminohexane}-AMPWSPAPAARAGGG
B22: Polypeptide 17 (peptide)
peptide: {Biotin-aminohexane}-GMPWSYNPWWRGGGG
B23: Polypeptide 3 (peptide)
peptide: {Biotin-aminohexane}-GAPWSPNPWWRGGGG

Target: CDK4/6
Assay: cell-based or functional assay
Conditions: scale: relative value

Which CDK4/6 Reactivity does the source give for B1 here?
The CDK4/6 Reactivity was 7.

Which CDK4/6 Reactivity does the source give for B2 here?
Its CDK4/6 Reactivity is 5.

How did the CDK4/6 Reactivity turn out when B3 was run?
Its CDK4/6 Reactivity is 2.

With B4 as the binder, how does the CDK4/6 Reactivity read?
The CDK4/6 Reactivity was 15.

B5 was tested. Which CDK4/6 Reactivity did it give?
The CDK4/6 Reactivity was 7.

With B6 as the binder, how does the CDK4/6 Reactivity read?
Its CDK4/6 Reactivity is 2.

For B7, which CDK4/6 Reactivity is on record?
The CDK4/6 Reactivity was 5.

How did the CDK4/6 Reactivity turn out when B8 was run?
The CDK4/6 Reactivity was 6.

With B9 as the binder, how does the CDK4/6 Reactivity read?
The CDK4/6 Reactivity was 5.

Which CDK4/6 Reactivity does the source give for B10 here?
The CDK4/6 Reactivity was 7.

For B11, which CDK4/6 Reactivity is on record?
The CDK4/6 Reactivity was 1.

How did the CDK4/6 Reactivity turn out when B12 was run?
The CDK4/6 Reactivity was 15.

Which CDK4/6 Reactivity does the source give for B13 here?
The CDK4/6 Reactivity was 5.

How did the CDK4/6 Reactivity turn out when B14 was run?
The CDK4/6 Reactivity was 5.

How did the CDK4/6 Reactivity turn out when B15 was run?
Its CDK4/6 Reactivity is 6.

For B16, which CDK4/6 Reactivity is on record?
The CDK4/6 Reactivity was 3.

Which CDK4/6 Reactivity does the source give for B17 here?
Its CDK4/6 Reactivity is 8.

Which CDK4/6 Reactivity does the source give for B18 here?
The CDK4/6 Reactivity was 1.

For B19, which CDK4/6 Reactivity is on record?
Its CDK4/6 Reactivity is 13.

B20 was tested. Which CDK4/6 Reactivity did it give?
The CDK4/6 Reactivity was 5.

Which CDK4/6 Reactivity does the source give for B21 here?
Its CDK4/6 Reactivity is 7.

With B22 as the binder, how does the CDK4/6 Reactivity read?
The CDK4/6 Reactivity was 2.

How did the CDK4/6 Reactivity turn out when B23 was run?
The CDK4/6 Reactivity was 33.
